US20210122795A1 (CITY OF HOPE, published 2021)
Blank lines part the entries; values can stand above or below the binder they belong to. Ends that are not written are not given here.

B1: Peptide 16 (chemically synthesized cyclic peptide) (peptide)
peptide: CWSPLPFMC
modifications: also: cyclic peptide, ring type not given here
notes: Immobilized on a CM5 chip in the SPR; also called Pep16
B2: Peptide 12 (chemically synthesized cyclic peptide) (peptide)
peptide: CSVLPPFMC
modifications: also: cyclic peptide, ring type not given here
notes: Immobilized on a CM5 chip in the SPR; also called Pep12
B3: mLcn2 (modified lipocalin2, monomeric) (designed binder)
chain: QDSTSDLIPAPPLSKVPLQQNFQDNQFHGKWYVVGLAGNRILRDDQHPMNMYATIYELKEDKSYNVTSVISSHKKCEYTIATFVPGSQPGEFTLGNIKSYGDKTSYLVRVVSTDYNQYAVVFFKLAEDNAEFFAITIYGRTKELASELKENFIRFSKSLGLPENHIVFPVPIDQCIDG
notes: Engineered lipocalin 2; also called monomeric mLCN2

How the values were obtained:
[1] = biological target: B3; assay: crystal structures of the peptide-mLcn2 complexes
[2] = biological target: B1; assay: SPR; analyte mLcn2 flowed over Peptide16 immobilized on a CM5 chip; analyte mLcn2 flowed over Peptide16 immobilized to a CM5 chip
From the text: FIG. 14A: mLCN2 vs. Pep16. Surface plasmon resonance of analyte mLcn2 flowed over ligand Peptide16 immobilized to a CM5 chip. Representative results are shown from three independent experiments.

[3] = biological target: T1, CTLA-4-Fc (recombinant bivalent CTLA-4 fused to the human IgG1 Fc) (human, UniProt P16410 36-161, Homodimer through the IgG1 Fc (bivalent); the Fc is left out of the letters.); assay: SPR; dimeric CTLA-4-Fc immobilized at medium density on a CM5 chip; analyte 3-1000 nM
T1 construct: also called dimeric CTLA-4-Fc; CTLA-4 (in the SEC legends); not shown: human IgG1 Fc and any linker of the CTLA-4-Fc fusion
T1 sequence (P16410 36-161 limits assumed): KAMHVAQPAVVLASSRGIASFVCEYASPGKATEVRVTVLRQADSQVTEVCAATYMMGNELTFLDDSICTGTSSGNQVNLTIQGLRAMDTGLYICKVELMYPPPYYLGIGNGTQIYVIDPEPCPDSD
Protocol: (§1) FIG. 10A: SPR analysis. Dimeric CTLA-4-Fc was immobilized at medium density to a CM5 chip. A range of 3-1000 nM monomeric mLCN2 (top) and 3-300 nM dimeric mLCN2-Fc (bottom) analytes were used for kinetics analyses. […] Concentration of analytes is 1000; 300; 30; and 3 nM.

[4] = biological target: T1, CTLA-4-Fc (recombinant bivalent CTLA-4 …); assay: SPR; dimeric CTLA-4-Fc immobilized at medium density on a CM5 chip; analyte 3-300 nM
Protocol: as §1

[5] = biological target: B2; assay: SPR; analyte mLcn2-Fc flowed over Peptide12 immobilized on a CM5 chip
From the text: FIG. 14B: mLCN2-Fc vs. Pep12. Surface plasmon resonance of analyte mLcn2-Fc flowed over ligand Peptide12 immobilized to a CM5 chip. Representative results are shown from three independent experiments.

Binder: B1
binding result [1]: binds

Binder: B2
binding result [1]: binds

Binder: B3
Kd [2]: 4.6 µM | koff [3]: 0.0002 s⁻¹ | kon [3]: 36000 M⁻¹ s⁻¹

kon [4]: 10000 M⁻¹ s⁻¹ | Kd [5]: 3.4 µM
B4: mLcn2-Fc (unmodified, without N-terminal mask) (Fc fusion)
chain: QDSTSDLIPAPPLSKVPLQQNFQDNQFHGKWYVVGLAGNRILRDDQHPMNMYATIYELKEDKSYNVTSVISSHKKCEYTIATFVPGSQPGEFTLGNIKSYGDKTSYLVRVVSTDYNQYAVVFFKLAEDNAEFFAITIYGRTKELASELKENFIRFSKSLGLPENHIVFPVPIDQCIDG
notes: also called dimeric mLCN2-Fc; unmodified mLcn2-Fc; not shown: flexible linker between mLcn2 and Fc; human IgG1 Fc domain
